Data on seven molecules can be found in PMC4005694, “Archaeal aminoacyl-tRNA synthetases interact with the ribosome to recycle tRNAs” (Nucleic Acids Research, 2014).

The labels stand for the following.
T1: Methanothermobacter thermautotrophicus methanogenic-type seryl-tRNA synthetase (M. thermautotrophicus, UniProt O27194 1-513)
T1 construct: methanogenic-type seryl-tRNA synthetase (mSerRS) of M. thermautotrophicus; Labelled with DY-495 in the MST experiment with L12; coupled by amines to a CM5 chip in SPR; also called mSerRS; SerRS
T1 sequence (looked up): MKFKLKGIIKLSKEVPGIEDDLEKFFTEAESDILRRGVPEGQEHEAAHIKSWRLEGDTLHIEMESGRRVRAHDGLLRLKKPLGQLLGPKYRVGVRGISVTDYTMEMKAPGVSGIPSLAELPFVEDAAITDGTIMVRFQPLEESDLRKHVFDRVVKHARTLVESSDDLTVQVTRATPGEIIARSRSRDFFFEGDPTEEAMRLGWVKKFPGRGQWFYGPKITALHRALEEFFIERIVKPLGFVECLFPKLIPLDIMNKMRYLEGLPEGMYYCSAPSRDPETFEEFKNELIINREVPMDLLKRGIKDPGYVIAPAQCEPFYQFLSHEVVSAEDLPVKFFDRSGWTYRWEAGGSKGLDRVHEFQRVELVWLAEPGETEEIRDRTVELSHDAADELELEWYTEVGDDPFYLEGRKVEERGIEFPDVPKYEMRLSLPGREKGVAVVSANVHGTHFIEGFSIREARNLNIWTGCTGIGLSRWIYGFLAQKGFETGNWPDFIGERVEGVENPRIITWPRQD

T2: elongation factor EF-G of M. thermautotrophicus, found in the cross-linking experiment with 70S ribosomes (M. thermautotrophicus (endogenous in M. …, UniProt O27131 1-730))
T2 construct: EF-G of M. thermautotrophicus, Mr 81 kDa as printed; source: endogenous, in the 70S ribosome preparation from M. thermautotrophicus cells
T2 sequence (looked up): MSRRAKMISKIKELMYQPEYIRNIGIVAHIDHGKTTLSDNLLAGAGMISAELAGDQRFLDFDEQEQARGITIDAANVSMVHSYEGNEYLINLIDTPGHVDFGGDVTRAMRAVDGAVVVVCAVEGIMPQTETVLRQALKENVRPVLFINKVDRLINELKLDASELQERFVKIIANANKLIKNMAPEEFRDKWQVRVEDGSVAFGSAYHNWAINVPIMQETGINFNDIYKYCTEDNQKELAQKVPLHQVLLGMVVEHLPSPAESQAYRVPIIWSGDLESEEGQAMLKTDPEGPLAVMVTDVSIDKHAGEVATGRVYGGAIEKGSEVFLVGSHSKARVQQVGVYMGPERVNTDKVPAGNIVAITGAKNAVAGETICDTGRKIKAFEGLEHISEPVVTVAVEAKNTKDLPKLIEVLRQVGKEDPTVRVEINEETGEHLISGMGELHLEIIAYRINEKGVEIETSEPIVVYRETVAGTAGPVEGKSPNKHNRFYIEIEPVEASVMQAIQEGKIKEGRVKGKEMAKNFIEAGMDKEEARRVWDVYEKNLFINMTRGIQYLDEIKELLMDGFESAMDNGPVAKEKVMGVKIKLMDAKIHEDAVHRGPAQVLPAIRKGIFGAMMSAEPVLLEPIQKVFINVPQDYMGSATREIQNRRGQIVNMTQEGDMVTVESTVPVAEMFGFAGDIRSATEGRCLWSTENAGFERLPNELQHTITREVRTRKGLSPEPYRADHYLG

B1: ribosomal protein L3p of M. thermautotrophicus, as it stands in the ribosome (natural protein, UniProt O26110 1-337, looked up)
chain: MARHHQPRKGSVAFSPRKRAARETPRVKSWPQVDEPGLLALAGYKAGMTHVMMVDNQKNSPTEGMEVSTPVTILEVPPLTVMAVRTYEKTSRGLKTLGEVLATETKDDLRRKLTPPADDYDQEAAIEKIRSNMEYVADVRVIVHTNPRLASVPKKKPEVFECGLGGKTPEEKFEYALEILGKDVRASEIFSEGAFVDAIAVTKGKGFQGPVKRWGIRIQYGKAARSSKGRHIGSLGPWTPSRTMWTVPQAGQMGYHRRTEYNKQILKIGDASEADLVNPDGGFVRYGLVRNDYVMIKGSVPGPTKRLVVLRKAIRAAGKQEEAPQINYISTASKQGV
notes: ribosomal protein L3 of M. thermautotrophicus, Mr 37 kDa as printed; Cross-linked while part of the ribosome; source: endogenous, in 70S ribosomes purified from M. thermautotrophicus cells
B2: recombinant ribosomal protein L3 of M. thermautotrophicus (natural protein, UniProt O26110 1-337, looked up)
chain: B1 chain
notes: ribosomal protein L3 of M. thermautotrophicus; gene inserted into pGEX-6P-2 via BamHI and EcoRI; The methods say both that the GST tag was removed and that GST-tagged proteins are appropriate for SPR; source: E. coli BL21 Rosetta, purified (GST-Sepharose)
B3: recombinant ribosomal protein L6 of M. thermautotrophicus (natural protein)
chain: not shown
notes: ribosomal protein L6 of M. thermautotrophicus; whole-length gene amplified from genomic DNA, cloned into pPROex-Htb via BamHI and SalI; source: E. coli BL21 Rosetta, purified (Ni-NTA agarose)
B4: ribosomal protein L10 (P0 homologue) of M. thermautotrophicus, as it stands in the ribosome (natural protein, UniProt O27717 1-336, looked up)
chain: MAHVAEWKKKEVQELHDLIKGYEVVGIANLADIPARQLQKMRQTLRDSALIRMSKKTLISLALEKAGRELENVDSLSDYMEGQPALIFTDMNPFKLFKILEDSKTPAPAKPGAIAPDDIVVPKGDTGFAPGPILGELQQIGIPAKIEKGKIVVSNDHVVVKAGEEIPPKVAGILTRLDIQPLEVGIDLRAAYENQTVYTADVLTIDEEKTLSDIQKAFSQAFNLSVNAVIYTRETMPAIIQKAASKSFNLAYNASILTSETTDLLLAKAYAQMLALAAAAAEINDEAVDDELKEKLSSRAAAPAPEEKEEEVEEEAEEEEEEEEEDAAAGLGALFG
notes: ribosomal protein L10 (P0 homologue) of M. thermautotrophicus, Mr 37 kDa as printed; Cross-linked while part of the ribosome; source: endogenous, in 70S ribosomes purified from M. thermautotrophicus cells
B5: recombinant ribosomal protein L10 of M. thermautotrophicus (natural protein, UniProt O27717 1-336, looked up)
chain: B4 chain
notes: ribosomal protein L10 (P0 homologue) of M. thermautotrophicus; gene inserted into pGEX-6P-2 via BamHI and SalI; The methods say both that the GST tag was removed and that GST-tagged proteins are appropriate for SPR; also called P0; source: E. coli BL21 Rosetta, purified (GST-Sepharose)
B6: recombinant ribosomal protein L12 of M. thermautotrophicus (natural protein, UniProt P05394 1-101, looked up)
chain: MEYIYAAMLLHTTGKEINEENVKSVLEAAGAEVDDARVKALIAALEDVDIEEAMETTAVAAAPAAAAAPAAAEEAEEEAEEEEEEEEAEEEAAAGLGALFG
notes: ribosomal protein L12 (P1 homologue) of M. thermautotrophicus; whole-length gene amplified from genomic DNA, cloned into pPROex-Htb via NcoI and SalI; also called P1; source: E. coli BL21 Rosetta, purified (Ni-NTA agarose)
B7: Methanothermobacter thermautotrophicus arginyl-tRNA synthetase (enzyme, M. thermautotrophicus, UniProt O27496 1-560, looked up)
chain: MFRYIEKEARDSITAALEKLGIKVPPEIKLEEPPNPQLGDLASTVSFELAGKLRRAPIEITADIMSVIETPEIFETIESKGPYINFFVDYGRFSSRLLESIQDDYGSHPPRDERVILEHTSANPNGPLHIGHIRNAIIGDSLARILRMAGYDVETQYYVNDMGRQIAMIVWGLLNLDGDLEDYPGDKMDHRVGKLYFEVNQRLKENPGIRDEVDELIRKYEAGENEELFRKVVEYCLSGMEETMKRLHVHHDRFVWEGQFVRDGTVDRVIESLRKTGYTGENDVLYLDLEEFGLEKELVLTRSDGTSLYSTRDIAYHLQKSEEGDVIIDVLGSDHKLAAEQVGIAVELLGGKRPEVIFYEFITLPEGSMSTRRGVFISVDELMDEAHSRALHEVKKRRDLPDDVADDIAESIGNGAIRYYIARLSPEKHIVFRWDDALSFERGCASIQYAHARACKLLEKASFTGEEDIEDGWKPEGDERELVRLLARFPVVVEESALARRVHPVAQYAQDLANTFNSFYRSTPVIGSDFEGARLRLVDSVRKTLRNALNLLGIHAPETM
notes: arginyl-tRNA synthetase of M. thermautotrophicus; gene inserted into pPROex-Htb as a BamHI and XhoI cassette; His-tagged ArgRS is named only for the Ni-NTA SPR surface; also called ArgRS; source: E. coli BL21 Rosetta, purified (Ni-NTA agarose)

Common to all, as to conditions: both partners purified
Experiment [1] deals with B7. As to the kind of experiment: cross-linking; 70S ribosomes incubated with mSerRS or ArgRS; EDC; quenched; complexes pelleted; SDS-PAGE and mass spectrometry.
The target of experiment [2] is T1, Methanothermobacter thermautotrophicus …. Description: SPR; mSerRS amine-coupled to a CM5 chip (~800 RU), ribosomal proteins or controls as analytes; 25°C, Biacore T100, 10 µl/min; steady state affinity model. Background: SPR reads the build-up and loss of mass on a sensor chip optically.
Experiment [3] deals with B7. Description: SPR; ArgRS with ribosomal proteins; Ni-NTA surface used to immobilise His-tagged ArgRS, L6 or L12; which was held for which pair is not told; 25°C, Biacore T100.
For experiment [4], the target named is T1, Methanothermobacter thermautotrophicus …. Description: MST; labelled mSerRS kept constant, unlabelled L12 titrated 0.528 nM-17.32 µM; Monolith NT.115.
The target of experiment [5] is T2, elongation factor EF-G of M. …. As to the kind of experiment: cross-linking; 70S ribosomes incubated with mSerRS or ArgRS; EDC; quenched; complexes pelleted; SDS-PAGE and mass spectrometry.

The Kd is the constant that tells how readily two partners part at equilibrium. Low readings indicate tighter binding, high ones weaker binding.

Regarding B1, the binding result in experiment [1] is “binds”. In experiment [2], B2 registered a dissociation constant Kd of 54 nM. Besides, the binding result in experiment [3] is listed as “binds”. As for B3, in experiment [2], the Kd was found to be 240 nM. Besides, the binding result in experiment [3] is “binds”. In the case of B4, in experiment [1], the binding result is on record as “binds”. In experiment [2], B5 returned an equilibrium dissociation constant (Kd) of 39 nM. Also, the binding result in experiment [3] is reported as “binds”. Regarding B6, the Kd was found to be 460 nM in experiment [4] and 170 nM in experiment [2]. Regarding B7, in experiment [5], the binding result is “binds”.
